Experiment: yeast display, Sf9 membrane polyspecificity reagent, FACS + sequencing; frameworks hold sequencing errors
How it was run: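 Nanobodies from a synthetic yeast display library (Saccharomyces cerevisiae BJ5465), induced 36–48 hours with galactose, were stained 1 hour at 4 °C with 10% biotinylated, detergent-solubilized Sf9 membrane reagent, enriched on streptavidin microbeads, then FACS-sorted. Anti-HA (expression) and streptavidin (reagent binding) fluorescence set low and high (top ~1%) gates. Polyreactivity labels come from the gate of origin. Genes were colony-PCR amplified, MiSeq 2 × 250 sequenced and filtered by CDR length.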

Sequence	polyreactivity (PSR sort gate)
QVQLVESGGGLVQAGGSLRLSCAASGSTFGAYAMGWYRQAPGKEMELVAAISRRGGSTYYADSVKGRFTISRDNAKNTVYLQMNSLKPEDTAVYYCNAVGTRVDGEHYYWGQGTKVTVSS	high polyreactivity
QVQLVESGGGLVQAGGSLRLSCAASGFIFFSNAMGWYRQAPGKEMELVAAISRIGVSTYYADSLKGRFTISRDNAKNTVYLQMKSLKPEYTAVYYCNKSNPDYDGLAIHAFDYWGQGTQVTVSS	low polyreactivity
QVQLVESGGGLVQAGGSLRLSCAASGRIFGAYAMGWYRQAPGKERELVAAITQSGGSTFYADSVKGRFTISRDNAKNTVYLQMNSLKPEDTAVYYWGQGTQVTVSS	low polyreactivity
QVQLVESGGGLVQAGGSLRLSCAASGNTFYRYAMGGYRQSPGKERELVAAITWSGSRTYYADSVKGRFTISRDNAKYTVYLQMNRLKPEDTAVYYCAAPFWYVGPAMDYWGQGTQVTVSS	low polyreactivity
QVQLVESGGGLVQAGGSLRLICAASGRIFYNNAMGWYRQARGKERELVAGISRSSGRTYYADSVTGRFTISRDNAKNTGYLQMNSLKPVDTAVYYCAADWHYRSTARRMGYWGQGTQVTVSS	high polyreactivity
QVQLVESGGGLVQAGGSLRLSCAASGRIFHNYAMGWYRQAPGKERELVAAISSSGGRTTYADSVKGRFTISRDYAKNTVYLQMNSLKPEDTAVDYCAKRYPHIGDYWGEGTQVTVSS	high polyreactivity
QVQLVESGRGLVLAGGSLRLSCAASGRIFRYYAMGWYRQATGKERELVAGISWRGSSTYYADSVKGRFTISRDNAKNTVYLQMNSLKPEDTAVYYCNRDQSYIPVTGGRFYYWGQGTQVTVSS	high polyreactivity
QVQLVESGGGLVQAGGSLRLSCAASGSIFYYNAMGWYIQAPGKEREFVAAISSSGGSTYYADSVMGRFTISRDNAKNNVYLQMYRLKPEDTAVYYCAAKLRHWAHHTKYDYWGQGTQLTVSS	low polyreactivity
QVQLVESGGGLVQAGGSLRLSCAASGSSFYDNAMGWYRQAPAKERELVAAITWDGDGTYYADSVKGRFTISRDNAKNTVYLQMNSLKPEDTAVYYCAADYYLVGFDYYYWYGYWGQGTQVTVSS	low polyreactivity
QVQRVESGGGLVQAGASLRLSCAASGGIFYRNAMLWYRQAPGKERELVAAISRRAGSTYYADSVKGRFTISRDNAKNTVYLQMNSLKPEDTAVYYCARRVVNVGDADREYWGQGTQVTVSS	high polyreactivity
QVHLVESGGGLVQAGGSLRLSCASSGSIFRWYAMGWYRPAPGKERELVAAISTSGGNTYYADSVKGRFTISRDNAKNTVYLQMNSLKPEDTAVYYCNALWYRSLSYRYDYWGQGTQVTVSS	high polyreactivity
QVQLVESGGGLVQAGGSLRLSCAASGSIFHGYAMGWYRQAPGKERELVAAISYTGGRTYYADSVKGRFTISRDNAKNTVYLQMNSLKPEDTAVYYCADDSQLTKFYYWGQGTQVTVSS	high polyreactivity
HVQLVESGGGLVQAGGSLRLSCAASGSIFYGNTMGWYRQAPGKEREFVAAINKSDDSTYYADSVKGRFTISRDNAKNTVYLQMNSLKPEDTAVYYCWGPGTQVTVSS	low polyreactivity
QVQLVESGGGLVQAGGSLRLSSAASGRIFYGYAMGWSRQAPGKERELVAAITRSSSTYFADSVKGRFTISRDNAKNTVYLQMNSLKPEDTAVYDCAVYRLSWIGSVQYEYWGQGTQVTVSS	high polyreactivity
QVQLVESGGGLVQAGGSLRLSCAASGIIFVSYAMGWYRQAPGKERELVADITSGGRTYYADSVKGRFTISRDNAKNTVYLQMNSLKPEDTAVYYCAATYSYKGRWVWVYYWGQGTQVTVSS	high polyreactivity
QVQLVESGGGLVQAGGSLRLSCAASGFTSKGYAMGWYRQAPGKERELVATIRSRGGGTYYADSVKGRFTISRDNAKNTVYLQMNSLKPEDTAVYYCAAERKNKYDYWGQGTQVTVSS	high polyreactivity
QVQLVESGGGLVQAGGSLRLSCAASGRIFATYAMGWYRQAPGKERELVARITFTSGSTYYADSVKGRFTISRDNAKNTVYLQMNSLKPEDTAVYYCAAPWSVTRTSFDYWGQGTQVTVSS	high polyreactivity
QVQLVESGGGLVQAGGSLRLSCAASGRIFGYYTMGWYRQAPWKESELVARIRRNGVSTYYADSVKGRFTISRDNEKNTVYLQMNSLKPEDTAVYYCAAGYSINFKYDYWGQGTQVTVSS	high polyreactivity
QVKLVESAGGLVKAGGSLRLSSAASGITFNLYAMGCYSQSPGKERELVAAISWSGGSTYYADSVKGRFTISREHAKNTVYLQMNSLNQEDTAVYYCAAAWDYSAPYTYIYDYWGLGTQVTVSS	low polyreactivity
QVQLVESGGGLVQAGGSLRLSCAASGSTFGTNAMGWYRQAPGKERELVARINSSASTTYADSVKGRFTISRDNAKNTVYLQMNSLKPEDTAVYYCNADDRHSRVGHSWQDAQFDYWVQGTQVTVSS	high polyreactivity
QVQLVESGGGLVQAGGSLRLSCAASGSTYAMGWYRQAPGKERELVASITSRGGSTYYADSVKGRFTISRDNANNTVYLQMNSLKPEDTAVYYCAARWYYSYICYDYWRQGTQVTVSS	high polyreactivity
QVQLVESGGGLVQAGGSLRLSCAASGRIFRSNAMGWYRQAPGKERELVATISRRGGSTYYADSVKGRFTISRDNAKNTVYLQMNSLKPEDTAVYFCNTRNSGSLDLYNTMDYWGQGTQVTVSS	high polyreactivity

Sequence	polyreactivity (PSR sort gate)
QVQLVESGGGLVQAGGSLRLSCAASGNIIIPYAMGWYRQAPGNEREFVAVMSTRGGSTYYADSVKGRFTISRDNAQNTVYLQMNSLKPEDTAVYYCAARYPYRYDYWGQGTQVTVSS	high polyreactivity
QVQLVESGGGLVQAGGSLRLSCAASGSIFRYYAMGWYRQAPGKERELVAAITSGGRTNYADSVKGRFTISRDNAKNTVYLQMNSLKPEDSAVYYCNKGYNAVWRYRGDYWGQGTQVTVSS	high polyreactivity
QVQLVESGGGLVQAGGSLHLSCAASGFTFDGYTMGWYRQAPGKERELVATITTGGSTYYADSVKGRFTISRDNAKNTVYLQMNSLKPEDTAVYYCAADYRGVPYIKWPKDFEYWGQGTQVTVSS	low polyreactivity
QGQLVESGGGLVQAGGRLRLSCAASGFIFCIYAMAWYRTATGKQREFVAVSTYRGDTKYYADSVKGRFTISRDNAKNTVYLQMNSLKAEDTAVYSCAAYTVQKYGYWGQGTQVTVSS	low polyreactivity
QVQLVESGGGLDQAGGSLRLSCAASGNIFYTNAMGWYRQEPGKAREFVAAISGSGGRTYYADSVKGRFTMSRDNAKNTFYLQMNSLKPEDTEVYYCNAVRRDYYDRNYGYWGQGTQVSVSS	low polyreactivity
QVQLVESGGGLVQAGGSLRLSCAASGGIFLSNAMGWYRQAPGKERELVAAISRSGGSTYYADSVKWRFTISRDNAKNTVYLQMYSLKPEDTAVYYCAARWTRNYGMNYWGQGTQVTVSS	high polyreactivity
QVQLVESGGGLVQAGGSLRLSCAASGLIFYRNAMGWYRQAPGKERELVAAIRFSTGSTYYADSVKGRFTISRDNAKNSVYLQMNSLKPEDSAVYCCAAALPGYGDYYYWGQGTQVTVSS	high polyreactivity
QVQLVESGVRLVQAGGRLRLSCAASGRIFDHNAMGWYRQAPGKERELVAAIDSGTSTNYADSVKGRFTISRDNAKNTVYLQMNSLKPEDTAVYYCARLLGPVRHKYDYDYWGQGTQVTVSS	low polyreactivity
QVQLVESGGGLVQAGGSLRLSCDASGSIFNRNVMGWYRQAHGKERELVAVITGSGDSTFYADSVKGRFTISRDNAKNTVYLQRNSLIPDDTAVYYCNARLVSGGYYYWGLGTQVTVSS	low polyreactivity
QVQLVESGGGLVQAGGSLRLSCAASGSTFRVYAMGWYRQAPRKERELVAAISKSGVSTYYADSVKGRFTISRDNAMNTVYLQMNSLKPEDTAVYYCPVFLGYSRKYDYWGQGTQVTVSS	high polyreactivity
QVQLVESGGGLVQAGGSLRLSCAASGRTFITYAMGWYRQAPGKERELVAAISSGGGRTYYADSVKGRFTISRDNAKNTVYLQMNSLKPEDTAVYYCAALYVYPLTYKPSRYPYDYWGQGTQVTVSS	high polyreactivity
QVQLVESGGRLVQAGGSLRLSCAASGRLFASNAMGWYLQAPGTEMELVAGNSRNGGSTFYADSVKGRFTISRDNAKNTVYLQMNSRKPEDSAVYYCARYYTHSGGYRDRIYYFWGQGTQVTVSS	low polyreactivity
QVQLQESGGGVQAGGSLRLSCAASGSISAPILMGWYRQAPGKERELVAGIGGGANSYYADSVKGRFTVSRDNAKYTVYLQMNSLKPEATAVYYCAAGDYYWTNFGYWGQGTQVTASS	high polyreactivity
QVQLVESGGGLFQAGGSLRLSCAASGRIFYYNAMGWYRQAPGKEREFVAAITYRGGSTYYADSVKGRFTISRDNAKITVYLQMNSLKPEDTAVYYCAARSAWQVAPRGRTVAFDYWGQGTQVTVSS	high polyreactivity
QVQLVESGGGLVQAGGSLRLSCAASGFIIIGNAMVWYRQAPGKERELVAAISRRGGSTYYADSVKGRFTISRDNAKNTVYLQMNSLKPEDTAVYYCATDPGARVHYPTGDYWGQGTQVTLSS	high polyreactivity
QVQVVESGGGLVQAGGSLRLSCAASGWYNAMGWYRQAPGKERELVAAISWDGDSTYYADSVKGRFTISRENAKNTVYLQMNSLKPEDTAVYYCAATQSTGRGRYYYWGKGTQVTVSS	high polyreactivity
QVQLVESGGGLVQAGGSLPLICAASGSTSVVNAMGWYRQAHGKERELVATIPRVGRTYYADSVKGRFTISRDNAKNTVYLQMNSLKPEDTAVYYCASRLVGRSYKYDYWGQGTQVTVSS	high polyreactivity
QVQLVESGGGLVQAGGSLRLSCAASGRTFWGNAMGWYRQAPGKERELVAAIRRGGRTNYADSVKGRFTISRDNAKNTVYLQMNSLKPEDTAVYYCNALYAWSWPRGYDYWGQGTQVTVSS	high polyreactivity
QVQLVESGGGLVQAGGSLRLSCAASGSIFPVYAMGWYRQAPGKERELVAAISSRGGRTYYADSVKGRFTISRDNAKNTVYLQMNSLKPEDTAVYYCAAVPYPSYYDTGYDYWGQGTQVTVSS	low polyreactivity
QVQLQESGGGLVQAGGSLRLSCAASGIIFDNPNMGWYRQAPGKQRELVATINSGATTNYADSVKGRFTISRDNAKNTVYLLMNSLIPEDTAVYYCAVDLSPTYFYYWGQGTQVTVSS	high polyreactivity
EVQLVESGGGLFQAGGSLRLSCAASGFTFYRYAMGWYRQAPGKERELVAGITWGGGRTYYADSVKGRFTISRDNAKNTVYFQMNSLKPEATAVYYCAAYYSQDSRRKYDYWGQVTQVTVSS	high polyreactivity
